How the values were obtained:
primer:template = experiment: Fidelity screen with rhodamine labeled non-complementary ddNTP; type: biochemical; conditions: R110-labeled incorrect ddNTP
Protocol: Reactions (10 μl) contained 1 unit of enzyme in 1× reaction buffer, 15 nM primer template, 25 nM of unlabeled complementary ddNTP, and 25, 100, 500, or 1000 nM of rhodamine labeled non-complementary ddNTP in four separate reactions. The reactions were incubated in a Perkin-Elmer 9600 for 25 cycles as follows: 96° C. for 10 s, 50° C. for 5 s, and 60° C. for 30 s. The reactions were then quenched with ice-cold 0.2 M EDTA (final concentration) and the products were purified from unincorporated rhodamine labeled ddNTPs and analyzed as described above.
Fidelity was determined as the tendency of a DNA polymerase to incorporate the correct nucleotide in the presence of increasing amounts of a non-complementary nucleotide. These assays employed constant amounts of primer:template, an unlabeled complementary ddNTP and DNA polymerase, and various concentrations of a rhodamine-labeled non-complementary ddNTP, as described in the Experimental Protocol. The amount of misextended primers is plotted against the ratio of rhodamine-labeled incorrect ddNTP/unlabeled correct ddNTP (FIG. 18 panels A and B). We performed similar assays for all possible mispairs (Table IX).
To address these concerns, the insertion fidelity of the JDF-3 P410L/A485T and Taq F667Y mutants was compared. In the first set of fidelity assays, a constant amount of primer:template, an unlabeled complementary ddNTP, and increasing concentrations of R110-labeled non-complementary ddNTP was used (Materials and Methods). […] The amount of misextended primers was determined and plotted against the ratio of R110-labeled incorrect ddNTP/unlabeled correct ddNTP (FIG. 27, panels A and B). Similar assays for all 12 possible mispairs was performed (ddG:dT, ddT:dG, ddT:dC, ddC:dT, ddC:dA, ddA:dC, ddA:dG, ddG:dA, ddT:dT, ddC:dC, ddA:dA, ddG:dG). […] The other mispairs are formed less frequently, and at similar rates for the JDF-3 P410L/A485T and Taq F667Y mutants (data not shown).
Fidelity assays using labeled ddNTPs (10 μl) contained 1 unit DNA polymerase in 1× reaction buffer, 15 nM primer: template, 25 nM of unlabeled complementary ddNTP, and 25, 100, 500, or 1000 nM of rhodamine-labeled non-complementary ddNTP in four separate reactions. The reactions were incubated in a Perkin-Elmer 9600 for 25 cycles as follows: 96° C. for 10 s, 50° C. for 5 s, and 60° C. for 30 s. The reactions were quenched and analyzed as above.

[1] = cited from earlier work
[2] = Gardner and Jack, 1999; cited from earlier work
[3] = Reha-Krantz et al., 1993; cited from earlier work
[4] = 3′ to 5′ exonuclease activity, Kong et al. method, bacterial lysates; type: biochemical
Protocol: To analyze JDF-3 mutant proteins, the DNA sequence encoding JDF-3 DNA polymerase was PCR amplified using primers GGGAAACATATGATCCTTGACGTTGATTAC (where NdeI site in bold and start codon underlined) and GGGAAAGGATCCTCACTTCTTCTTCCCCTTC (where BamHI site shown in bold type). The PCR products were digested, purified, and ligated into a high expression level vector using standard methods. Plasmid clones were transformed into BL21(DE3). Recombinant bacterial clones were grown using standard procedures and JDF-3 polymerase mutants were expressed in the absence of induction. The exonuclease and polymerase activities of recombinant clones were assayed using bacterial lysates. Typically, crude extracts were heated at 70° C. for 15-30 minutes and then centrifuged to obtain a cleared lysate.
There are several methods of measuring 3′ to 5′ exonuclease activity known in the art, including that of Kong et al. (Kong et al., 1993, J. Biol. Chem. 268: 1965) and that of Southworth et al. (Southworth et al., 1996, Proc. Natl. Acad. Sci. U.S.A. 93: 5281), the full contents of both of which are hereby incorporated by reference. The exonuclease activity of wild type and active mutant polymerases as measured by the Kong et al. method were as follows: […]

Activated DNA = experiment: Polymerase specific activity on activated DNA (Table IV); type: biochemical
Protocol: (§1) Recombinant JDF-3 DNA polymerase was purified as described below (see “Purification of JDF-3” (method 1)). The biochemical properties of JDF-3 DNA polymerase have been compared to those of other commercially available archaeal DNA polymerases. […] JDF-3 DNA polymerase was therefore chosen for development of a DNA sequencing enzyme.
DNA polymerase activity was measured using purified JDF-3 polymerase mutants or heat-treated bacterial extracts prepared from various mutant clones. DNA polymerase activity was measured by monitoring the incorporation of ^3H-TTP into activated calf thymus DNA. A typical DNA polymerase reaction cocktail contained:
Incorporation was measured by adding 1 μl of polymerase samples to 10 μl aliquots of polymerase cocktail. DNA polymerase samples were diluted in a suitable storage buffer (e.g., 25 mM Tris-HCl (pH 7.5), 100 mM KCl, 0.1 mM EDTA, 1 mM DTT, 0.1% (v/v) Tween 20, 0.1% (v/v) Igepal 630, 10 μg/ml BSA, and 50% (v/v) glycerol). Polymerization reactions were conducted for 30 minutes at 72° C. Extension reactions were quenched on ice, and then 5 μl aliquots were spotted immediately onto DE81 ion-exchange filters (2.3 cm; Whatman #3658323). Unincorporated [^3H]TTP was removed by 6 washes with 2×SCC (0.3M NaCl, 30 mM sodium citrate, pH 7.0), followed by a brief wash with 100% ethanol. Incorporated radioactivity was measured by scintillation counting. […]

DNA = experiment: Polymerase constant for DNA (Table IV); type: biochemical; conditions: head names no parameter
Text: as §1

Primed M13 = experiment: Polymerase specific activity on primed M13 (Table IV); type: biochemical
Text: as §1

[5] = Polymerase constant for dNTP (Table IV); type: biochemical; conditions: head names no parameter
Text: as §1

AmpliTaq FS: Taq F667Y mutant DNA polymerase (ABI / Perkin Elmer)
ddG:dT mispair formation frequency, higher than JDF-3 P410L/A485T (primer:template): 20 fold | ddT:dC mispair formation frequency, higher than JDF-3 P410L/A485T (primer:template): 3 fold

Y412F: VENT DNA polymerase site-directed mutant Y412F (Gardner and Jack, 1999)
analog incorporation ([1]; Gardner and Jack, 1999): no change in analog incorporation

Y412V: VENT DNA polymerase site-directed mutant Y412V (Gardner and Jack, 1999)
increase in incorporation of ribonucleotide ATP [2]: 200 fold | dideoxynucleotide incorporation relative to unmutated / wild type enzyme ([1]; literature values): 2 fold

B1: L412M: L412M bacteriophage T4 DNA polymerase mutant (Reha-Krantz et al., 1993) (protein, UniProt P04415 1-898, looked up, variant L412M)
DNA-directed DNA polymerase: MKEFYISIETVGNNIVERYIDENGKERTREVEYLPTMFRHCKEESKYKDIYGKNCAPQKFPSMKDARDWMKRMEDIGLEALGMNDFKLAYISDTYGSEIVYDRKFVRVANCDIEVTGDKFPDPMKAEYEIDAITHYDSIDDRFYVFDLLNSMYGSVSKWDAKLAAKLDCEGGDEVPQEILDRVIYMPFDNERDMLMEYINLWEQKRPAIFTGWNIEGFDVPYIMNRVKMILGERSMKRFSPIGRVKSKLIQNMYGSKEIYSIDGVSILDYLDLYKKFAFTNLPSFSLESVAQHETKKGKLPYDGPINKLRETNHQRYISYNIIDVESVQAIDKIRGFIDLVLSMSYYAKMPFSGVMSPIKTWDAIIFNSLKGEHKVIPQQGSHVKQSFPGAFVFEPKPIARRYIMSFDLTSMYPSIIRQVNISPETIRGQFKVHPIHEYIAGTAPKPSDEYSCSPNGWMYDKHQEGIIPKEIAKVFFQRKDWKKKMFAEEMNAEAIKKIIMKGAGSCSTKPEVERYVKFSDDFLNELSNYTESVLNSLIEECEKAATLANTNQLNRKILINSLYGALGNIHFRYYDLRNATAITIFGQVGIQWIARKINEYLNKVCGTNDEDFIAAGDTDSVYVCVDKVIEKVGLDRFKEQNDLVEFMNQFGKKKMEPMIDVAYRELCDYMNNREHLMHMDREAISCPPLGSKGVGGFWKAKKRYALNVYDMEDKRFAEPHLKIMGMETQQSSTPKAVQEALEESIRRILQEGEESVQEYYKNFEKEYRQLDYKVIAEVKTANDIAKYDDKGWPGFKCPFHIRGVLTYRRAVSGLGVAPILDGNKVMVLPLREGNPFGDKCIAWPSGTELPKEIRSDVLSWIDHSTLFQKSFVKPLAGMCESAGMDYEEKASLDFLFG
ddGTP needed for inhibition, less than wild-type polymerase [3]: 50 fold

B2: JDF-3: Recombinant wild-type Thermococcus species JDF-3 Family B DNA polymerase (SEQ ID NO: 2) (protein)
chain: MILDVDYITENGKPVIRVFKKENGEFRIEYDREFEPYFYALLRDDSAIEEIKKITAERHGRVVKVKRAEKVKKKFLGRSVEVWVLYFTHPQDVPAIRDKIRKHPAVIDIYEYDIPFAKRYLIDKGLIPMEGEEELKLMSFDIETLYHEGEEFGTGPILMISYADESEARVITWKKIDLPYVEVVSTEKEMIKRFLRVVKEKDPDVLITYNGDNFDFAYLKKRCEKLGVSFTLGRDGSEPKIQRMGDRFAVEVKGRVHFDLYPVIRRTINLPTYTLEAVYEAVFGKPKEKVYAEEIATAWETGEGLERVARYSMEDARVTYELGREFFPMEAQLSRLIGQGLWDVSRSSTGNLVEWFLLRKAYERNELAPNKPDERELARRRGGYAGGYVKEPERGLWDNIVYLDFRSLYPSIIITHNVSPDTLNREGCRSYDVAPEVGHKFCKDFPGFIPSLLGNLLEERQKIKRKMKATLDPLEKNLLDYRQRAIKILANSYYGYYGYARARWYCRECAESVTAWGREYIEMVIRELEEKFGFKVLYADTDGLHATIPGADAETVKKKAMEFLNYINPKLPGLLELEYEGFYVRGFFVTKKKYAVIDEEGKITTRGLEIVRRDWSEIAKETQARVLEAILRHGDVEEAVRIVREVTEKLSKYEVPPEKLVIHEQITRELKDYKATGPHVAIAKRLAARGVKIRPGTVISYIVLKGSGRIGDRAIPFDEFDPTKHKYDADYYIENQVLPAVERILRAFGYRKEDLRYQKTRQVGLGAWLKPKGKKK
modifications: Thermococcus sp. JDF-3
Exo activity (U/mg) [4]: 915 U/mg | Specific Activity (U/mg) × 10^4 Activated DNA (Activated DNA): 1.2 ± .07 (U/mg) × 10^4 | DNA (DNA): 2.0 nM | Specific Activity (U/mg) × 10^4 Primed M13 (Primed M13): 5.2 (U/mg) × 10^4 | dNTP (μM each) [5]: 16 ± 2 μM each

B3: Pfu: Family B DNA polymerase from Pyrococcus furiosus (protein, UniProt P61875 1-775, looked up)
DNA polymerase: MILDVDYITEEGKPVIRLFKKENGKFKIEHDRTFRPYIYALLRDDSKIEEVKKITGERHGKIVRIVDVEKVEKKFLGKPITVWKLYLEHPQDVPTIREKVREHPAVVDIFEYDIPFAKRYLIDKGLIPMEGEEELKILAFDIETLYHEGEEFGKGPIIMISYADENEAKVITWKNIDLPYVEVVSSEREMIKRFLRIIREKDPDIIVTYNGDSFDFPYLAKRAEKLGIKLTIGRDGSEPKMQRIGDMTAVEVKGRIHFDLYHVITRTINLPTYTLEAVYEAIFGKPKEKVYADEIAKAWESGENLERVAKYSMEDAKATYELGKEFLPMEIQLSRLVGQPLWDVSRSSTGNLVEWFLLRKAYERNEVAPNKPSEEEYQRRLRESYTGGFVKEPEKGLWENIVYLDFRALYPSIIITHNVSPDTLNLEGCKNYDIAPQVGHKFCKDIPGFIPSLLGHLLEERQKIKTKMKETQDPIEKILLDYRQKAIKLLANSFYGYYGYAKARWYCKECAESVTAWGRKYIELVWKELEEKFGFKVLYIDTDGLYATIPGGESEEIKKKALEFVKYINSKLPGLLELEYEGFYKRGFFVTKKRYAVIDEEGKVITRGLEIVRRDWSEIAKETQARVLETILKHGDVEEAVRIVKEVIQKLANYEIPPEKLAIYEQITRPLHEYKAIGPHVAVAKKLAAKGVKIKPGMVIGYIVLRGDGPISNRAILAEEYDPKKHKYDAEYYIENQVLPAVLRILEGFGYRKEDLRYQKTRQVGLTSWLNIKKS
DNA (DNA): 0.7 nM | Specific Activity (U/mg) × 10^4 Primed M13 (Primed M13): 2.0 ± .02 (U/mg) × 10^4 | dNTP (μM each) [5]: 16 ± 2 μM each
